Results from PMC9588774 (Cell Death & Disease, 2022).

T1: CD95L (FasL, Peprotech) (UniProt P48023 130-281)
T1 chain: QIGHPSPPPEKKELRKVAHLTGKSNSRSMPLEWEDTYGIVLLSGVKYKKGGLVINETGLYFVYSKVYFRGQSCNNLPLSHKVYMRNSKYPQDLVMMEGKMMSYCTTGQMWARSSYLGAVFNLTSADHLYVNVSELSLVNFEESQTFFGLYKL

B1: soluble extracellular domain of CD95 with K33G (sCD95-K33G) (domain or fragment, UniProt P25445 17-173, looked up)
chain: RLSSKSVNAQVTDINSGGLELRKTVTTVETQNLEGLHHDGQFCHKPCPPGERKARDCTVNGDEPDCVPCQEGKEYTDKAHFSSKCRRCRLCDEGHGLEVEINCTRTQNTKCRCKPNFFCNSTVCEHCDPCTKCEHGIIKECTLTSNTKCKEEGSRSN
notes: CD95 (Fas), a.a; 17-173 of the 335-residue precursor, AAG codon (K) replaced by GGG (G); pcDNA3.1(+); also called soluble K33G CD95 mutant; source: HEK/293T, transfected (calcium/phosphate), secreted into serum-deprived Opti-MEM; supernatant ultracentrifuged
B2: soluble Δ36-truncated extracellular domain of CD95 (sCD95-Δ36) (domain or fragment, UniProt P25445 37-173, looked up)
chain: LRKTVTTVETQNLEGLHHDGQFCHKPCPPGERKARDCTVNGDEPDCVPCQEGKEYTDKAHFSSKCRRCRLCDEGHGLEVEINCTRTQNTKCRCKPNFFCNSTVCEHCDPCTKCEHGIIKECTLTSNTKCKEEGSRSN
notes: CD95 (Fas), a.a; 37-173 of the 335-residue precursor; pcDNA3.1(+); also called Δ36-CD95; MMP7-cleaved form; source: HEK/293T, transfected (calcium/phosphate), secreted into serum-deprived Opti-MEM; supernatant ultracentrifuged
B3: soluble Δ58-truncated extracellular domain of CD95 (sCD95-Δ58) (domain or fragment)
chain: CHKPCPPGERKARDCTVNGDEPDCVPCQEGKEYTDKAHFSSKCRRCRLCDEGHGLEVEINCTRTQNTKCRCKPNFFCNSTVCEHCDPCTKCEHGIIKECTLTSNTKCKEEGSRSNL
B4: soluble full-length extracellular domain of CD95 (sCD95) (domain or fragment)
chain: RLSSKSVNAQVTDINSKGLELRKTVTTVETQNLEGLHHDGQFCHKPCPPGERKARDCTVNGDEPDCVPCQEGKEYTDKAHFSSKCRRCRLCDEGHGLEVEINCTRTQNTKCRCKPNFFCNSTVCEHCDPCTKCEHGIIKECTLTSNTKCKEEGSRSNL
modifications: N-glycosylated

Assays:
[1] = target: the molecule itself; test: SEC; supernatants of sCD95-secreting HEK/293T cells on Superdex 200 Prep Grade (XK 16/70) in PBS, 1 mL/min, 1 mL fractions; CD95 in each fraction dosed by ELISA; native molecular markers
[2] = target: T1, CD95L (FasL, Peprotech); test: SPR
[3] = target: CD95L (FasL, Peprotech) (UniProt P48023); test: SPR; Biacore T200, 25 °C; CM5 chip coated with 140 RU of FasL (Peprotech); sCD95 or sCD95-Δ58 injected in triplicate at 25 µl/min in 10 mM Na2HPO4, 150 mM NaCl, 3 mM EDTA, 0.05% Tween-20, pH 7.4; Langmuir 1:1 fit, KD = kd/ka
[4] = target: soluble full-length extracellular domain of CD95 (sCD95); test: SEC; supernatants of sCD95-secreting HEK/293T cells on Superdex 200 Prep Grade (XK 16/70) in PBS, 1 mL/min, 1 mL fractions; CD95 in each fraction dosed by ELISA; native molecular markers

Binder | stoichiometry N [1] | koff [2] | Kd [3] | percent of homotrimer [4] | percent of monomer [4] | percent of the protein in the dimer fractions [4] | stoichiometry N [4]
B1 | 3 |  |  |  |  |  | 
B2 | 2 |  |  |  |  |  | 
B3 |  | 0.0011 s⁻¹ | 2.5 nM |  |  |  | 
B4 |  | 0.0011 s⁻¹ | 2 nM | 27% | 20% | 44% | 2
